Results as given in patent publication US20210253724A1.

How the values were obtained:
[1] = molecular target: human CEACAM5 (CEA) on cells (human) (UniProt P06731); test: flow cytometry on MKN45 cells; parameters: unit not given beside the values
[2] = molecular target: hu N(A2-B2)A-avi-His B (human); test: SPR (Biacore T200), CEA construct immobilised, Fab as analyte, 1:1 Langmuir fit
Chain of hu N(A2-B2)A-avi-His B (human) (P06731 whole entry): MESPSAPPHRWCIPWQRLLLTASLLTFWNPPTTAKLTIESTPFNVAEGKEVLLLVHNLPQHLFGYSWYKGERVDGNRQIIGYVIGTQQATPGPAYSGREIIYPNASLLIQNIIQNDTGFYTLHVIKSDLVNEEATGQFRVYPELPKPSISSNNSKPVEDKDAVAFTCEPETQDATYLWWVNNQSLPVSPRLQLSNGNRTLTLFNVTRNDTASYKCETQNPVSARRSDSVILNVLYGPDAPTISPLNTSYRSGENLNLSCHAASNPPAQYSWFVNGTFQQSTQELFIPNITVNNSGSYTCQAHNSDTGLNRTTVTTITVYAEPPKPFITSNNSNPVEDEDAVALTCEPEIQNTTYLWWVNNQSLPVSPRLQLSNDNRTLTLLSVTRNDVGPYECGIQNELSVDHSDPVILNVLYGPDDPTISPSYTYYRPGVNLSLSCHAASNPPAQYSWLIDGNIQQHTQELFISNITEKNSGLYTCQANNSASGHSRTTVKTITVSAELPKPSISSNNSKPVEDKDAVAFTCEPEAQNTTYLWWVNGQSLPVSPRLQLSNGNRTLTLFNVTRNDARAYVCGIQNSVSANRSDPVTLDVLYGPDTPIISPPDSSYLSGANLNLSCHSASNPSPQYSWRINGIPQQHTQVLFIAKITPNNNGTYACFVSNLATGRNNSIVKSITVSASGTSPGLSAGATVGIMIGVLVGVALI

Chain of human CEACAM5 (CEA) on cells (human) (P06731 35-685 E398K limits assumed): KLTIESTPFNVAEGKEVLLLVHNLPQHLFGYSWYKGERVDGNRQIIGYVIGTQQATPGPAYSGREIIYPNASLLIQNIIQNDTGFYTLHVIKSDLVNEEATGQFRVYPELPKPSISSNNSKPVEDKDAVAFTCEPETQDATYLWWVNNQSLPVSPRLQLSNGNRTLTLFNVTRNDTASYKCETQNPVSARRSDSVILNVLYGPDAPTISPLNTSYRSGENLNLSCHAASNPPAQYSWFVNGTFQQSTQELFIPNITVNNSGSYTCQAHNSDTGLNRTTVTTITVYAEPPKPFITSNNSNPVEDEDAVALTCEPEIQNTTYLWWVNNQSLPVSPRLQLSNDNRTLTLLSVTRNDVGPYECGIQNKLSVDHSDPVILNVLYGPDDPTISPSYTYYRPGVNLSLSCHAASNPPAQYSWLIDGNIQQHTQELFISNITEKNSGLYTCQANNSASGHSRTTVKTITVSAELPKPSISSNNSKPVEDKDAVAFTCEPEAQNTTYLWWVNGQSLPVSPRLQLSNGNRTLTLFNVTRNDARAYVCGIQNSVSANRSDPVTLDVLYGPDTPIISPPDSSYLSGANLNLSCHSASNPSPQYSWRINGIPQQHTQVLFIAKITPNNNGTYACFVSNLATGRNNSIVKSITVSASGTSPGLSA

| Binder | AUC [1] | Kd [2] |
| --- | --- | --- |
| P1AE3108 (antibody, IgG1, V domains shown) VH: QVQLVQSGAEVKKPGSSVKVSCKASGFNIKDSYMHWVRQAPGQGLEWMGWIDPENGDTEYAPKFQGRVTITTDESTSTAYMELSSLRSEDTAVYYCNEGTPTGPYYFDYWGQGTLVTVSS VL: EIQMTQSPSSLSASVGDRVTITCRASQSISSYMHWYQQKPGKAPKLLIYSTSNLASGVPSRFSGSGSGTDFTLTISSLQPEDFATYYCQQRSSYPLTFGGGTKLEIK | 2090 | – |
| P1AE4140 Fab derived from P1AE2177 (Fab, V domains shown) VH: EVQLLESGGGLVQPGGSLRLSCAASGFTFTDYYMNWVRQAPGKGLEWVGFIGNKANGYTTEYSASVKGRFTISRDNSKNTLYLQMNSLRAEDTAVYYCTRDRGLRFYFDYWGQGTTVTVSS VL: EIVLTQSPATLSLSPGERATLSCRASSSVTYIHWYQQKPGQAPRSWIYATSNLASGIPARFSGSGSGTDFTLTISSLEPEDFAVYYCQHWSSKPPTFGQGTKLEIK | – | 7.62 nM |
| P1AE4137 Fab derived from P1AE2166 (Fab, V domains shown) VH: EVQLLESGGGLVQPGGSLRLSCAASGFTFTDYYMNWVRQAPGKGLEWLGFIGNKANGYTTEYSASVKGRFTISRDKSKNTLYLQMNSLRAEDTATYYCTRDRGLRFYFDYWGQGTTVTVSS VL: EIVLTQSPATLSLSPGERATLSCRASSSVTYIHWYQQKPGSSPKSWIYATSNLASGIPARFSGSGSGTDFTLTISSLEPEDFAVYYCQHWSSKPPTFGQGTKLEIK | – | 11.3 nM |
| P1AE4142 Fab derived from P1AE2181 (Fab, V domains shown) VH: EVQLLESGGGLVQPGGSLRLSCAASGFTFTDYYMNWVRQAPGKGLEWVGFIGNKANGYTTEYSASVKGRFTISRDKSKNTLYLQMNSLRAEDTAVYYCARDRGLRFYFDYWGQGTTVTVSS VL: EIVLTQSPATLSLSPGERATLSCRASSSVTYIHWYQQKPGSSPKSWIYATSNLASGIPARFSGSGSGTDFTLTISSLEPEDFAVYYCQHWSSKPPTFGQGTKLEIK | – | 2.64 nM |
| P1AE4141 Fab derived from P1AE2179 (Fab, V domains shown) VH: EVQLLESGGGLVQPGGSLRLSCAASGFTFTDYYMNWVRQAPGKGLEWVGFIGNKANGYTTEYSASVKGRFTISRDKSKNTLYLQMNSLRAEDTAVYYCARDRGLRFYFDYWGQGTTVTVSS VL: QTVLTQSPATLSLSPGERATLSCRASSSVTYIHWYQQKPGSSPKSWIYATSNLASGIPARFSGSGSGTDYTLTISSLEPEDFAVYYCQHWSSKPPTFGQGTKLEIK | – | 1.83 nM |
| P1AE4139 Fab derived from P1AE2176 (Fab, V domains shown) VH: EVQLLESGGGLVQPGGSLRLSCAASGFTFTDYYMNWVRQAPGKGLEWVGFIGNKANGYTTEYSASVKGRFTISRDNSKNTLYLQMNSLRAEDTAVYYCTRDRGLRFYFDYWGQGTTVTVSS VL: EIVLTQSPATLSLSPGERATLSCRASSSVTYIHWYQQKPGSSPKSWIYATSNLASGIPARFSGSGSGTDFTLTISSLEPEDFAVYYCQHWSSKPPTFGQGTKLEIK | – | 7.58 nM |
| P1AE4143 Fab derived from P1AE2182 (Fab, V domains shown) VH: EVQLLESGGGLVQPGGSLRLSCAASGFTFTDYYMNWVRQAPGKGLEWVGFIGNKANGYTTEYSASVKGRFTISRDKSKNTLYLQMNSLRAEDTAVYYCARDRGLRFYFDYWGQGTTVTVSS VL: EIVLTQSPATLSLSPGERATLSCRASSSVTYIHWYQQKPGQAPRSWIYATSNLASGIPARFSGSGSGTDFTLTISSLEPEDFAVYYCQHWSSKPPTFGQGTKLEIK | – | 2.92 nM |

Further binders by falling Kd [2], results first:

| AUC [1] | Kd [2] | Binder |
| --- | --- | --- |
| – | 1.7 nM | P1AE4135 Fab derived from P1AE2164 (Fab, V domains shown) VH: EVQLLESGGGLVQPGGSLRLSCAASGFTFTDYYMNWVRQAPGKGLEWLGFIGNKANGYTTEYSASVKGRFTISRDKSKNTLYLQMNSLRAEDTATYYCTRDRGLRFYFDYWGQGTTVTVSS VL: QTVLTQSPATLSLSPGERATLSCRASSSVTYIHWYQQKPGSSPKSWIYATSNLASGIPARFSGSGSGTDYTLTISSLEPEDFAVYYCQHWSSKPPTFGQGTKLEIK |
| – | 1.47 nM | P1AE4138 Fab derived from P1AE2167 (Fab, V domains shown) VH: EVQLLESGGGLVQPGGSLRLSCAASGFTFTDYYMNWVRQAPGKGLEWLGFIGNKANGYTTEYSASVKGRFTISRDKSKNTLYLQMNSLRAEDTATYYCTRDRGLRFYFDYWGQGTTVTVSS VL: EIVLTQSPATLSLSPGERATLSCRASSSVTYIHWYQQKPGQAPRSWIYATSNLASGIPARFSGSGSGTDFTLTISSLEPEDFAVYYCQHWSSKPPTFGQGTKLEIK |
| – | 1.25 nM | P1AE4136 Fab derived from P1AE2165 (Fab, V domains shown) VH: EVQLLESGGGLVQPGGSLRLSCAASGFTFTDYYMNWVRQAPGKGLEWLGFIGNKANGYTTEYSASVKGRFTISRDKSKNTLYLQMNSLRAEDTATYYCTRDRGLRFYFDYWGQGTTVTVSS VL: QTVLTQSPATLSLSPGERATLSCRASSSVTYIHWYQQKPGQAPRLLIYATSNLASGIPARFSGSGSGTDFTLTISSLEPEDFAVYYCQHWSSKPPTFGQGTKLEIK |
| – | 0.559 nM | P1AE0289 CEA (A5B7) Fab (parental murine antibody) (Fab, V domains shown) VH: EVKLVESGGGLVQPGGSLRLSCATSGFTFTDYYMNWVRQPPGKALEWLGFIGNKANGYTTEYSASVKGRFTISRDKSQSILYLQMNTLRAEDSATYYCTRDRGLRFYFDYWGQGTTLTVSS VL: QTVLSQSPAILSASPGEKVTMTCRASSSVTYIHWYQQKPGSSPKSWIYATSNLASGVPARFSGSGSGTSYSLTISRVEAEDAATYYCQHWSSKPPTFGGGTKLEIK |
